US20250248376A1 (University of Texas, published 2025)

T1: Contactin (mouse Cntn1) (mouse, UniProt P12960 21-1001)
T1 construct: whole, on cells; One entry covers both endogenous spinal cord Contactin and Contactin transfected into HEK cells; It was immunoprecipitated from lysates with anti-Contactin antibodies; also called Contactin/F3
T1 sequence (looked up): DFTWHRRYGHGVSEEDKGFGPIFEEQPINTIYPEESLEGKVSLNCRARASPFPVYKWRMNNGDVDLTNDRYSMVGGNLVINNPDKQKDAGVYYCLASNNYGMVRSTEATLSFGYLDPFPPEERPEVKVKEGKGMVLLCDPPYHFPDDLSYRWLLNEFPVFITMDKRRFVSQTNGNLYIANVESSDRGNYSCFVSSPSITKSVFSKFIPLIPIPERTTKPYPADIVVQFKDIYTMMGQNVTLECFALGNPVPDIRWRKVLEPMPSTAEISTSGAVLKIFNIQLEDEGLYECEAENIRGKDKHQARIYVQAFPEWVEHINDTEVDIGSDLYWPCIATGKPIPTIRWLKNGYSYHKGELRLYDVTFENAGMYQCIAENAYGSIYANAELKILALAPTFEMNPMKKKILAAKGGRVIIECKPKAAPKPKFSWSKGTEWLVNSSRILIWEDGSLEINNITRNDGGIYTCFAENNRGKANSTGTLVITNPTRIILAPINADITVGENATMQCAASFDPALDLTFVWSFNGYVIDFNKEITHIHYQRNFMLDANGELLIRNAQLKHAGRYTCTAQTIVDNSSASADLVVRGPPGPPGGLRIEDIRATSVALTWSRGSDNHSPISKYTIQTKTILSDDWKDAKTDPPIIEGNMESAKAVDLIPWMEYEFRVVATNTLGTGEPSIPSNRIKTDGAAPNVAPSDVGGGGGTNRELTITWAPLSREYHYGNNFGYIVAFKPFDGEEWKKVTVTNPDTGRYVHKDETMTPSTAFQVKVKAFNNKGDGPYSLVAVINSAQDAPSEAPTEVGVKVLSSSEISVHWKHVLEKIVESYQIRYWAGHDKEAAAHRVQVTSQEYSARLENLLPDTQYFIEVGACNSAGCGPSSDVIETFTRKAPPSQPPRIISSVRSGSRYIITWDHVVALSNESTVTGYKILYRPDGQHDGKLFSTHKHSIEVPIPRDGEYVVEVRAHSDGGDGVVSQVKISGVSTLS


Target: T1, Contactin (mouse Cntn1)
Experiment: co-IP with anti-Contactin antibodies from lysates of HEK cells co-transfected with Contactin, immunoblot for Cntnap1 (FIG. 17J)
Excerpt: After confirming the mutations, the wild-type Cntnap1, Cntnap1C^C324R or […] cDNAs and Contactin cDNA (MG50933-CF, SinoBiological) were co-transfected into HEK cells. Contactin surface expression was examined by immunostaining of live, non-permeabilized HEK cells followed by fixation and permeabilization and immunostaining with an anti-Cntnap1 antibody to detect the expression of Cntnap1. The wild-type Cntnap1 protein was readily localized at the cell surface of the HEK cells (FIGS. 17Ga, c), however, the surface localization of Cntnap1^C324R (FIGS. 17Ha, c), and Cntnap1^R765c (FIGS. 17Ia, c) mutant proteins was strongly affected. […] The Cntnap1 protein expression was mostly cytosolic in both Cntnap1^C324R or Cntnap1^R765C transfected HEK cells as was the Contactin localization. […] IP of cell lysates from HEK cells that co-expressed the wild-type Cntnap1, Cntnap1^C324R and Cntnap1^R765C proteins and Contactin was also carried out. The expression levels of these proteins were similar in HEK cells transfected with respective expression constructs (FIG. 17J, input).

level of Cntnap1 co-immunoprecipitated with Contactin, relative to wild-type Cntnap1 [%] | Binder
60 | Cntnap1^C324R mutant expressed in HEK cells (site-directed mutant of pCMV-Cntnap1^Flag) (receptor, Co-transfected with Contactin cDNA; the co-IP was done on total cell lysates; also called Mouse Cntnap1^C324R clone; not shown: Flag tag inherited from pCMV-Cntnap1^Flag) WGYYGCNEELVGPLYARSLGASSYYGLFTTARFARLHGISGWSPRIGDPNPWLQIDLMKKHRIRAVATQGAFNSWDWVTRYMLLYGDRVDSWTPFYQKGHNATFFGNVNDSAVVRHDLHYHFTARYIRIVPLAWNPRGKIGLRLGIYGCPYTSSILYFDGDDAISYRFQRGASQSLWDVFAFSFKTEEKDGLLLHTEGSQGDYVTLELQGAHLLLHMSLGSSPIQPRPGHTTVSLGGVLNDLSWHYVRVDRYGRDANFTLDGYAHHFVLNGDFERLNLENEIFIGGLVGAARKNLAYRHNFRGRIENVIYNRINIAEMAVMRHSRITFEGNVAFRCLDPVPHPINFGGPHNFVQVPGFPRRGRLAVSFRFRTWDLTGLLLFSHLGDGLGHVELMLSEGQVNVSIAQTGRKKLQFAAGYRLNDGFWHEVNFVAQENHAVISIDDVEGAEVRVSYPLLIRTGTSYFFGGCPKPASRWGCHSNQTAFHGCMELLKVDGQLVNLTLVEFRKLGYFAEVLFDTCGITDRCSPNMCEHDGRCYQSWDDFICYCELTGYKGVTCHEPLYKESCEAYRLSGKYSGNYTIDPDGSGPLKPFVVYCDIRENRAWTVVRHDRLWTTRVTGSSMDRPFLGAIQYWNASWEEVSALANASQHCEQWIEFSCYNSRLLNTAGGYPYSFWIGRNEEQHFYWGGSQPGIQRCACGLDQSCVDPALHCNCDADQPQWRTDKGLLTFVDHLPVTQVVVGDTNRSNSEAQFFLRPLRCYGDRNSWNTISFHTGAALRFPPIRANHSLDVSFYFRTSAPSGVFLENMGGPFCRWRRPYVRVELNTSRDVVFAFDIGNGDENLTVHSDDFEFNDDEWHLVRAEINVKQARLRVDHRPWVLRPMPLQTYIWLVYDQPLYVGSAELKRRPFVGCLRAMRLNGVTLNLEGRANASEGTFPNCTGHCTHPRFPCFHGGRCVERYSYYTCDCDLTAFDGPYCNHDIGGFFETGTWMRYNLQSALRSAAREFSHMLSRPVPGYEPGYVPGYDTPGYVPGYHGPGYRLPEYPRPGRPVPGYRGPVYNVTGEEVSFSFSTNSAPAVLLYVSSFVRDYMAVLIKEDGTLQLRYQLGTSPYVYQLTTRPVTDGQPHSVNITRVYRNLFIQVDYFPLTEQKFSLLVDSQLDSPKALYLGRVMETGVIDPEIQRYNTPGFSGCLSGVRFNNVAPLKTHFRTPRPMTAELAEAMRVQGELSESNCGAMPRLVSEVPPELDPWYLPPDFPYYHDDGWIAILLGFLVAFLLLGLVGMLVLFYLQNHRYKGSYHTNEPKATHDSHPGGKAPLPPSGPAQAPAPTPAPTQLPTPAPAPAPAPASGPGPRDQNLPQILEESRSE
10 | Cntnap1^R765C mutant expressed in HEK cells (site-directed mutant of pCMV-Cntnap1^Flag) (receptor, Co-transfected with Contactin cDNA; the co-IP was done on total cell lysates; also called Mouse Cntnap1^R765C clone; not shown: Flag tag inherited from pCMV-Cntnap1^Flag) WGYYGCNEELVGPLYARSLGASSYYGLFTTARFARLHGISGWSPRIGDPNPWLQIDLMKKHRIRAVATQGAFNSWDWVTRYMLLYGDRVDSWTPFYQKGHNATFFGNVNDSAVVRHDLHYHFTARYIRIVPLAWNPRGKIGLRLGIYGCPYTSSILYFDGDDAISYRFQRGASQSLWDVFAFSFKTEEKDGLLLHTEGSQGDYVTLELQGAHLLLHMSLGSSPIQPRPGHTTVSLGGVLNDLSWHYVRVDRYGRDANFTLDGYAHHFVLNGDFERLNLENEIFIGGLVGAARKNLAYRHNFRGCIENVIYNRINIAEMAVMRHSRITFEGNVAFRCLDPVPHPINFGGPHNFVQVPGFPRRGRLAVSFRFRTWDLTGLLLFSHLGDGLGHVELMLSEGQVNVSIAQTGRKKLQFAAGYRLNDGFWHEVNFVAQENHAVISIDDVEGAEVRVSYPLLIRTGTSYFFGGCPKPASRWGCHSNQTAFHGCMELLKVDGQLVNLTLVEFRKLGYFAEVLFDTCGITDRCSPNMCEHDGRCYQSWDDFICYCELTGYKGVTCHEPLYKESCEAYRLSGKYSGNYTIDPDGSGPLKPFVVYCDIRENRAWTVVRHDRLWTTRVTGSSMDRPFLGAIQYWNASWEEVSALANASQHCEQWIEFSCYNSRLLNTAGGYPYSFWIGRNEEQHFYWGGSQPGIQRCACGLDQSCVDPALHCNCDADQPQWRTDKGLLTFVDHLPVTQVVVGDTNCSNSEAQFFLRPLRCYGDRNSWNTISFHTGAALRFPPIRANHSLDVSFYFRTSAPSGVFLENMGGPFCRWRRPYVRVELNTSRDVVFAFDIGNGDENLTVHSDDFEFNDDEWHLVRAEINVKQARLRVDHRPWVLRPMPLQTYIWLVYDQPLYVGSAELKRRPFVGCLRAMRLNGVTLNLEGRANASEGTFPNCTGHCTHPRFPCFHGGRCVERYSYYTCDCDLTAFDGPYCNHDIGGFFETGTWMRYNLQSALRSAAREFSHMLSRPVPGYEPGYVPGYDTPGYVPGYHGPGYRLPEYPRPGRPVPGYRGPVYNVTGEEVSFSFSTNSAPAVLLYVSSFVRDYMAVLIKEDGTLQLRYQLGTSPYVYQLTTRPVTDGQPHSVNITRVYRNLFIQVDYFPLTEQKFSLLVDSQLDSPKALYLGRVMETGVIDPEIQRYNTPGFSGCLSGVRFNNVAPLKTHFRTPRPMTAELAEAMRVQGELSESNCGAMPRLVSEVPPELDPWYLPPDFPYYHDDGWIAILLGFLVAFLLLGLVGMLVLFYLQNHRYKGSYHTNEPKATHDSHPGGKAPLPPSGPAQAPAPTPAPTQLPTPAPAPAPAPASGPGPRDQNLPQILEESRSE
